Columns and labels:
[1] = target: RSV IN 1–278 (Rous sarcoma virus integrase, C-terminal truncation of 8 amino acids) (Rous sarcoma virus (Prague A)); test: cryo-EM structure
[2] = target: RSV IN 1–278 (Rous sarcoma virus integrase, C-terminal truncation of 8 amino acids) (Rous sarcoma virus (Prague A)); test: SEC
[3] = target: RSV IN S262R (recombinant) (Rous sarcoma virus (Prague A)); test: not stated; CSC assembly with recombinant IN mutants (Supplementary Fig. 11)

Substance | stoichiometry N [1] | stoichiometry N [2] | stoichiometry N [3]
RSV IN 1–278 (Rous sarcoma virus integrase, C-terminal truncation of 8 amino acids) (domain or fragment) | 8 | 8 | 
RSV IN S262R (recombinant) (enzyme) |  |  | 8
